Measurements from patent publication US20100322897A1.

Target: human IL-17 receptor (IL-17R) on primary human bronchial epithelial (HBE) cells (human) (UniProt Q96F46)
Test: cell-based or functional assay

Row | Substance | inhibition of DEFB104 mRNA upregulation by 100 ng/ml IL-17F in HBE cells after preincubation with 2 ug/ml anti-IL-17R antibody [%] | inhibition of DEFB104 mRNA upregulation by 100 ng/ml IL-17A in HBE cells after preincubation with 2 ug/ml anti-IL-17R antibody [%]
1 | human IL-17F (R&D Systems) (from UniProt Q96PD4 31-163) (ligand) | 77.6 | –
2 | IL-17A (R&D Systems) (from UniProt Q16552 20-155) (ligand) | – | 62.5
